Data on 3 molecules can be found in patent US9993566B2, “SEZ6 modulators and methods of use” (AbbVie Stemcentrx LLC, priority 2013, dated 2018).

The target in assay [1] is T1, SEZ6 (Homo sapiens, UniProt Q53EL9).
T1 construct: produce a cDNA fragment encoding the mature human SEZ6 protein; IgK signal peptide (N); T2A peptide (residue left after ribosomal skipping; GFP is a separate protein) (C); expressed in transfected cells; host or cells: HEK-293T (lentiviral transduction, pCDH-EF1-MCS-T2A-GFP)
Put plainly: Immunohistochemistry validation on FFPE cell pellets. Type of assay: binding. The following applies: FFPE sections. How it is done:
Immunohistochemistry (IHC) was performed on PDX tumors to confirm that SEZ6 is expressed on the surface of certain PDX tumors; and in order to determine the location of the SEZ6 protein in the tumor architecture. IHC was performed on formalin fixed paraffin embedded (FFPE) tissue sections using an indirect detection method which included murine monoclonal primary antibody against SEZ6 (SC17.140), mouse specific biotin conjugated secondary antibodies, avidin/biotin complex coupled with horse radish peroxidase, and DAB detection (Nakene P K 1968; 16:557-60). […] Specificity was further confirmed by competing signal with a 5 molar excess of purified recombinant SEZ6 on HEK-293T cells overexpressing human SEZ6 and NTX tumors that were shown by IHC to express SEZ6 (data not shown).

Assay [2] concerns the target T2, SEZ6 ECD (Homo sapiens, UniProt Q53EL9).
T2 construct: SEZ6 extracellular domain (amino acids 1-904); expressed in transfected cells; host or cells: yeast (surface display, Cochran et al. protocol)
Put plainly: Fine epitope mapping (phage display peptide library or yeast-displayed SEZ6 ECD mutants). It is filed as binding. The following applies: epitope conformational (discontinuous) or linear. How it is done: Epitopes were classified either as conformational (i.e. discontinuous) or linear. Yeast displaying the SEZ6 ECD construct was heat treated for 30 minutes at 80° C. in order to denature the antigen, washed twice in ice-cold PBSA and then subjected to the same staining protocol and flow cytometry analysis as described above. Antibodies that bound to both the denatured and native yeast were classified as binding to a linear epitope, whereas antibodies that bound native yeast but not denatured yeast were classified as conformationally specific.
Fine epitope mapping was further performed on selected antibodies to determine the specific amino acids to which they bound. Antibodies that bound to a linear epitope were mapped using the Ph.D.-12 phage display peptide library kit (New England Biolabs E8110S). The antibody selected for epitope mapping was coated onto a Nunc MaxiSorp tube (Nunc) at 50 μg/mL in 3 mL 0.1 M sodium bicarbonate solution, pH 8 and incubated overnight. The tube was blocked with 3% BSA solution in bicarbonate solution. Then, 10^11 input phage in PBS+0.1% Tween-20 was allowed to bind, followed by ten consecutive washes with 0.1% Tween-20 to wash away non-binding phage. Remaining phage were eluted with 1 mL 0.2 M glycine for 10 minutes at room temperature with gentle agitation, followed by neutralization with 150 μL 1 M Tris-HCl pH 9. Eluted phage were amplified and panned again with 10^11 input phage, using 0.5% Tween-20 during the wash steps to increase selection stringency. DNA from 24 plaques of the eluted phage from the second round was isolated using the Qiaprep M13 Spin kit (Qiagen) and sequenced. Binding of clonal phage was confirmed using an ELISA assay, where the mapped antibody or a control antibody was coated onto an ELISA plate, blocked, and exposed to each clone phage. Phage binding was detected using horseradish peroxidase conjugated anti-M13 antibody (GE Healthcare), and the 1-Step Turbo TMB ELISA solution (Pierce). Phage peptide sequences from specifically binding phage were aligned using Vector NTI (Life Technologies) against the antigen ECD peptide sequence to determine the epitope of binding.
Selected antibodies that bound to a discontinuous epitope were mapped using the technique described by Chao et al. (2007). Libraries of SEZ6 ECD mutants were generated with error prone PCR using nucleotide analogues 8-oxo-2′deoxyguanosine-5′-triphosphate and 2′-deoxy-p-nucleoside-5′triphosphate (both from TriLink Bio) for a target mutagenesis rate of one amino acid mutation per clone. These were transformed into a yeast display format. Using the technique described above for domain-level mapping, the library was stained for c-myc and antibody binding at 50 nM. […] These clones were re-grown, and subjected to another round of FACS sorting for loss of binding to the target antibody. Using the Zymoprep Yeast Plasmid Miniprep kit (Zymo Research), individual ECD clones were isolated and sequenced. Where necessary, mutations were reformatted as single-mutant ECD clones using the Quikchange site directed mutagenesis kit (Agilent).
Individual ECD clones were next screened to determine whether loss of binding was due to a mutation in the epitope, or a mutation that caused misfolding. Mutations that involved cysteine, proline, and stop codons were automatically discarded due to the high likelihood of a misfolding mutation. Remaining ECD clones were then screened for binding to a non-competing, conformationally specific antibody. ECD clones that lost binding to non-competing, conformationally specific antibodies were concluded to contain misfolding mutations, whereas ECD clones that retained equivalent binding as wild type SEZ6 ECD were concluded to be properly folded. Mutations in the ECD clones in the latter group were concluded to be in the epitope. […]

Assay [3] relates to LU64, a SCLC tumor. Put plainly: ADC cytotoxicity in NTX tumor cells in vitro. Type of assay: cell-based, human. Particulars: compared to control msIgG1. How it is done: (§1) NTX tumors were dissociated into a single cell suspension and plated on Primaria™ plates (BD Biosciences) in growth factor supplemented serum free media as is known in the art. After culturing the cells for one day at 37° C./5% CO2/5% O2, they were treated with a control (IgG1, IgG2a or IgG2b) or a murine SEZ6 modulator and Fab-saporin as described in Example 14. After seven days, the modulator-mediated saporin cytotoxicity was assessed by quantifying the remaining number of live cells using Cell Titer Glo.
(§2) Mouse lineage-depleted NTX tumor cells were exposed to anti-SEZ6 ADCs or a mouse isotype control (msIgG1) using the same method as described in Example 15, except that Fab-saporin was not added.

In assay [4] the test system is OV26, a NET ovarian tumor. Put plainly: ADC cytotoxicity in NTX tumor cells in vitro. It is filed as cell-based, human. Particulars: compared to control msIgG1. The procedure: as §1, §2
Assay [5] has as its target T3, SEZ6L2 (Homo sapiens, UniProt Q6UXD5, INS830AYEELLDNRKLEV).
T3 construct: IgK signal peptide (N, cleaved yes); made in house; host or cells: HEK-293T or CHO-S
In words: ELISA cross reactivity to family member SEZ6L2. The arrangement: key to binds SEZ6 family member SEZ6L2 (dagger): *: antibodies that bind SEZ6 family members SEZ6L and SEZ6L2 are designated with an asterisk and/or a dagger, respectively; †: antibodies that bind SEZ6 family members SEZ6L and SEZ6L2 are designated with an asterisk and/or a dagger, respectively. Type of assay: binding. How it is done:
To determine cross reactivity to family member proteins, SEZ6L and SEZ6L2, an ELISA-based assay was used. Plates were coated with SEZ6, SEZ6L, or SEZ6L2 proteins at 0.2 μg/mL in PBS overnight. After washing with PBS containing 0.05% (v/v) Tween 20 (PBST), the wells were blocked with 2% (w/v) BSA in PBS (PBSA), 100 μL/well for 1 hour at room temperature. Antibody was then added at 1 μg/mL in 100 μL PBSA for 1 hour at room temperature. After washing with PBST, 100 μL/well HRP-labeled goat anti-mouse IgG diluted 1:2,000 in PBSA for 1 hour at room temperature. The plates were washed and 100 μL/well of the TMB substrate solution (Thermo Scientific 34028) was added for 15 minutes at room temperature. After developing, an equal volume of 2M H2SO4 was added to stop substrate development and analyzed by spectrophotometer at OD 450. […] As discussed above, such pan-SEZ6 antibodies are compatible with the teachings herein and may be used in conjunction with the disclosed methods.

The target in assay [6] is T4, mouse SEZ6 (Mus musculus, UniProt Q7TSK2).
T4 construct: Neuro2a (ATCC Cat # CCL131), and RIN-m5F (ATCC cat # CRL-11605) cell lines which express mouse SEZ6 and rat SEZ6; host or cells: Neuro2a
T4 sequence (Q7TSK2 20-991): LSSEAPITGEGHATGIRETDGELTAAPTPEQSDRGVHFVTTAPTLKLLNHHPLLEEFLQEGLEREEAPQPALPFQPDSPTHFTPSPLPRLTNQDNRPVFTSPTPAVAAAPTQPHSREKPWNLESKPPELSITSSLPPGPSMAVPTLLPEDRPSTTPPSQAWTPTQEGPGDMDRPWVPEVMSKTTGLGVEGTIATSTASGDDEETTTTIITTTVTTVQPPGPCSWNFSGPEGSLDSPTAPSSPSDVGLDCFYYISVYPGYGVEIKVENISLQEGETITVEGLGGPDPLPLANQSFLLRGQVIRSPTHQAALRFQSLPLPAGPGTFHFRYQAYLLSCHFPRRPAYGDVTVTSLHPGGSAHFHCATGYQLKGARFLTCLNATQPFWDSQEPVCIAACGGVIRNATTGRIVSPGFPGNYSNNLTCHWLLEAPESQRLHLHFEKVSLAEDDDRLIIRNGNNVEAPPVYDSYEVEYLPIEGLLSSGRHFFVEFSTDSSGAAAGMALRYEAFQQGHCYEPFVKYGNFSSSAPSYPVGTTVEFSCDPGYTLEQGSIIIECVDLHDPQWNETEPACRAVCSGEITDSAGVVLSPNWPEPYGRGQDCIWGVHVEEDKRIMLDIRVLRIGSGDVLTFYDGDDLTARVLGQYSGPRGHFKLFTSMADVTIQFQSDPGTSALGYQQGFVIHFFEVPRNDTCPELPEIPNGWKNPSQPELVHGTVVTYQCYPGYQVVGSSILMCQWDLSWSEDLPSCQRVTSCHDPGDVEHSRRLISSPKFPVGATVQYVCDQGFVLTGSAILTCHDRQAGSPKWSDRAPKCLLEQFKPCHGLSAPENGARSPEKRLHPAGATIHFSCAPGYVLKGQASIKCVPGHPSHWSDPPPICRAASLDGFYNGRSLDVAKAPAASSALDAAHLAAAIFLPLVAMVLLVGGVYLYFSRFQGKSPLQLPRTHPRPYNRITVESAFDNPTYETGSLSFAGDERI
In words: Flow cytometry cross reactivity, Neuro2a cells. Type of assay: binding. Particulars: 5 μg/mL antibody. The procedure:
In this regard flow cytometry was performed using a FACSCanto II as per the manufacturer's instructions in order to confirm that selected SC17 antibody modulators can immunospecifically associate with human SEZ6 and to determine whether the same modulators cross-react with cynomolgus, rat and/or murine SEZ6 in addition to SEZ6L and SEZ6L2. More particularly modulators were tested for cross reactivity to murine SEZ6 and rat SEZ6 by flow cytometry against Neuro2a (ATCC Cat # CCL131), and RIN-m5F (ATCC cat # CRL-11605) cell lines which express mouse SEZ6 and rat SEZ6, respectively. For examining cross reactivity to cynomolgus SEZ6, yeast displaying the extracellular domain of cynomolgus SEZ6 (Boder et al, 1997) were used for flow cytometry analysis.
Briefly 1×10^5 cells per well of Neuro2a, RIN-5mF, or yeast displaying cynomolgus SEZ6 cells were incubated for 30 minutes with 50 μL PBS (2% FCS) buffer with 5 μg/mL antibody. Cells were washed twice with the same buffer and then incubated with 50 μL per sample DyLight 649 labeled goat-anti-mouse IgG, Fc fragment specific secondary diluted 1:200 in PBS buffer. After incubating for 15 minutes cells were washed twice with the PBS buffer and re-suspended in the same with DAPI for flow cytometry analysis of Neuro2a and Rin-m5F or buffer without DAPI for flow cytometric analysis of yeast cells with cSEZ6.

Assay [7] has as its system rat SEZ6. Put plainly: Flow cytometry cross reactivity, RIN-m5F cells. Type of assay: binding. The following applies: 5 μg/mL antibody. The essentials:
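Neuro2a (mouse SEZ6), RIN-m5F (rat SEZ6) or yeast displaying cynomolgus SEZ6 extracellular domain, 1×10^5 cells, incubated 30 min with 5 μg/mL antibody in PBS/2% FCS. Detection by DyLight 649 anti-mouse IgG Fc secondary (1:200, 15 min), then flow cytometry, with DAPI for mammalian cells only.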

Assay [8] concerns LU37, a NSCLC tumor. Put plainly: Fab-saporin cytotoxicity in NTX tumor cells. It is filed as cell-based, human. The following applies: antibody with Fab-saporin, seven days. The procedure: (§3) To corroborate the results of Example 14 and determine whether SEZ6 modulators can mediate toxin internalization and cell killing of human tumor cells (as opposed to engineered cells), mouse lineage-depleted NTX cells were plated and subsequently exposed to anti-SEZ6 antibodies and Fab-saporin.
as §1

Assay [9] has as its system LU100, a SCLC tumor. Put plainly: Fab-saporin cytotoxicity in NTX tumor cells. Type of assay: cell-based, human. Particulars: 50 and 500 pM antibody with Fab-saporin, seven days. How it is done:
as §3, §1

Assay [10] relates to LU80, a SCLC tumor. Put plainly: Fab-saporin cytotoxicity in NTX tumor cells. It is filed as cell-based, human. The following applies: antibody with Fab-saporin, seven days. How it is done: as §3, §1

T3 sequence (Q6UXD5 with tags, fused parts or gaps with the stated changes): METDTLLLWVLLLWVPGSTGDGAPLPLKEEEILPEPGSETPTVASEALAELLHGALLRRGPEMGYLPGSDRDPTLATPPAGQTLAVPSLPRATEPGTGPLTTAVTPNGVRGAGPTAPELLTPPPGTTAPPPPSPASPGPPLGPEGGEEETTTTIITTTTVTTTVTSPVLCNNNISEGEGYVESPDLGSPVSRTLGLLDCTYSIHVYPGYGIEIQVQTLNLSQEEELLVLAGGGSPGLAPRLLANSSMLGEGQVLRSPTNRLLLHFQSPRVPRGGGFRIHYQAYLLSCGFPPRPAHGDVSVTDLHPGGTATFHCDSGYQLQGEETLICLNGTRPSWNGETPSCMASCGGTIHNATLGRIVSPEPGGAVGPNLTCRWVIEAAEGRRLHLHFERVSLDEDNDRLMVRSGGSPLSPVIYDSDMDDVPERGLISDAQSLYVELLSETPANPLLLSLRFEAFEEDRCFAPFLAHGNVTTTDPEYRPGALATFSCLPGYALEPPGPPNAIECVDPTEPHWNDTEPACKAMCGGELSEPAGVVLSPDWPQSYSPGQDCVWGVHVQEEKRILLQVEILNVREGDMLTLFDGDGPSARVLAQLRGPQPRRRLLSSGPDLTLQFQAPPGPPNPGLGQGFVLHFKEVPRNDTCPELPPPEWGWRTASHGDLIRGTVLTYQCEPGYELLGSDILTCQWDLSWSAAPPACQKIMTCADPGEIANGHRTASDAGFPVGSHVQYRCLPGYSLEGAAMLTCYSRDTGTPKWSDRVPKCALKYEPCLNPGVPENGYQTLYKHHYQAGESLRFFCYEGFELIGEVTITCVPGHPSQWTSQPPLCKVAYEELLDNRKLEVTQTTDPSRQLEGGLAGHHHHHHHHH
Sequence of rat SEZ6 (as listed by the source): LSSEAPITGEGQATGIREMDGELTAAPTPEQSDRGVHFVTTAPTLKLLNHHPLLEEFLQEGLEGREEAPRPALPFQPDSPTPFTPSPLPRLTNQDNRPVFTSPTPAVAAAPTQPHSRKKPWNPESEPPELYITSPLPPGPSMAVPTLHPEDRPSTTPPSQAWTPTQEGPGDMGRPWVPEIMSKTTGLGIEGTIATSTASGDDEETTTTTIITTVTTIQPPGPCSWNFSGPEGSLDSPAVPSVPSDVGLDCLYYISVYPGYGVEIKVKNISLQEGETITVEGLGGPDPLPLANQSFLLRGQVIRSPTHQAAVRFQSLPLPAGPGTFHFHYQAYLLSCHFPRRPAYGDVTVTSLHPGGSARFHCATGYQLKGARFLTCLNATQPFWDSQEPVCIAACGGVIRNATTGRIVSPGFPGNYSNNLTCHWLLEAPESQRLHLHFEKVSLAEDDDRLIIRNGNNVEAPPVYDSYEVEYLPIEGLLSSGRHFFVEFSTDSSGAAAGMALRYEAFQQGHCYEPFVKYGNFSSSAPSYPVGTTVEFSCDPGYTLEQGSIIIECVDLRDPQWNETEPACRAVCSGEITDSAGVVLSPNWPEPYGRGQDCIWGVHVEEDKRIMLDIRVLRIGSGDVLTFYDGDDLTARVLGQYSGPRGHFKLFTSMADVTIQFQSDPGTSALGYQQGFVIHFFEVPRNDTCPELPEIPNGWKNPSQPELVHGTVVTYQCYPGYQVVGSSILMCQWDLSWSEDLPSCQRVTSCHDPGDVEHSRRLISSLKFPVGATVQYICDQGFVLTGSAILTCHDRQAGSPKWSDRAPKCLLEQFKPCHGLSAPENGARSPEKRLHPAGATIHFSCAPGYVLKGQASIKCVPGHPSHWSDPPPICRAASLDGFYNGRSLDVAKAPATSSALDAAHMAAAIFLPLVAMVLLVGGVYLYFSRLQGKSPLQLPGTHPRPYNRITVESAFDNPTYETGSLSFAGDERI

B1: SC17.140: murine anti-SEZ6 antibody (antibody, V domains shown)
VH: EVQLQQSGPELMKPGASVKMSCKASGYTFTDYNMHWVKQNQGKSLEWIGEINPNTGGTGYNQKFKGKATLTVDKFSSTAFIELRSLTSEDSAIYYCTRGGYDHYWYFDVWGAGTTVTVSS
VL: QIVLTQSPAIMSASPGEKVTMTCSASSSVSYMHWYQQKSGTSPKRWIYDTSKLASGVPARFSGSGSGTSYSLTISSMEAEDAATYYCQQWSSTPPTFGSGTKLEIK
modifications: Murine SC17.140 VH; Murine SC17.140 VL
notes: murine anti-SEZ6 antibody
B1: the “IHC staining of HEK-293T cell pellets overexpressing SEZ6 compared to naïve HEK-293T cell pellets” value in assay [1] is “specific staining”. Besides, in [2], the Discontinuous result is “Yes”.

B2: SC17.34-ADC2: SC17.34 antibody conjugated to PBD dimer cytotoxic agent (and linker) ADC2 (conjugate)
VL: DIKMTQSPSSMYASLGERVTITCKASQDINSYLSWFQQKPGKSPKTLIYRANRLVDGVPSRFSGSGSGQDYSLTISSLEYEDMGIYYCLQYDEFPPTFGGGTKLEIK
VH: EVQLQQSGPELVKPGSSVKISCKASGYTFTDYNMDWVKQSHGKRLEWIGYIYPDNGGAGYNQKFKGKATLTVDKSSSTAYMELRSLTSEDSAVYYCSRSITTAWFAYWGQGTLVTVSA
In the case of B2, the “percent viable cells, LU64” value in [3] was “increased reduction in percent viable cells”. In addition, in assay [4], the “percent viable cells, OV26” value was “increased reduction in percent viable cells”.

B3: SC17.6: murine anti-SEZ6 antibody; SC17.6 is duplicate of SC17.16 (antibody, V domains shown)
VH: EVQLQQSGPELMKPGASVKMSCKASGYTFTDYNMYWVKQNQGKSLEWIGEINPNNGGTAYNQKFRGKATLTVDKSSSTAYMELRSLTSEDSAVYYCARYDKGFDYWGQGTTLTVSS
VL: DIQMTQSPASLSVSVGETVTITCRASANINSNLVWYQQKQGKSPQLLVYAATNLADGVPSRFSGSGSGTQYSLKINSLQSEDFGNYYCQHFWGTPRTFGGGTKLEIK
modifications: Murine SC17.16 VH; Murine SC17.16 VL
On to B3, for which the “cross reactivity with SEZ6L2” value in [5] (ELISA, antibody 1 μg/mL) is “cross-reactive”. The “binds SEZ6 family member SEZ6L2 (dagger)” value in assay [5] (mark in Table 5) is “SC17.6^†, SC17.28^†, SC17.103, SC17.109, SC17.119,”. For the same molecule, the “cross reactivity to murine SEZ6” value in assay [6] is recorded as “cross reactive”. Also, the “cross reactivity to rat SEZ6” value in [7] is recorded as “cross reactive”. In assay [8], the “number of tumor cells, LU37” value is listed as “reduction in the number of tumor cells”. For the same molecule, the “number of tumor cells, LU100” value in [9] was “reduction of tumor cells”. The “number of tumor cells, LU80” value in assay [10] is given as “reduction in the number of tumor cells”.
